{"source": "paper doi:10.1101/2025.11.05.686826", "biological_target": "Prometheoarchaeum syntrophicum rubisco (Prometheoarchaeum syntrophicum)", "assay": "SEC-SAXS", "data": [{"substance": "Prometheoarchaeum syntrophicum rubisco (enzyme)", "values": [{"measurement": "stoichiometry N", "result": 2}]}]}
